The values below come from PMC7610691 (Nature structural & molecular biology, 2020).

In test [1] the target is T1, Ycg1 (S. cerevisiae condensin HEAT-repeat subunit) (S. cerevisiae, UniProt Q06680 1-1035).
T1 sequence: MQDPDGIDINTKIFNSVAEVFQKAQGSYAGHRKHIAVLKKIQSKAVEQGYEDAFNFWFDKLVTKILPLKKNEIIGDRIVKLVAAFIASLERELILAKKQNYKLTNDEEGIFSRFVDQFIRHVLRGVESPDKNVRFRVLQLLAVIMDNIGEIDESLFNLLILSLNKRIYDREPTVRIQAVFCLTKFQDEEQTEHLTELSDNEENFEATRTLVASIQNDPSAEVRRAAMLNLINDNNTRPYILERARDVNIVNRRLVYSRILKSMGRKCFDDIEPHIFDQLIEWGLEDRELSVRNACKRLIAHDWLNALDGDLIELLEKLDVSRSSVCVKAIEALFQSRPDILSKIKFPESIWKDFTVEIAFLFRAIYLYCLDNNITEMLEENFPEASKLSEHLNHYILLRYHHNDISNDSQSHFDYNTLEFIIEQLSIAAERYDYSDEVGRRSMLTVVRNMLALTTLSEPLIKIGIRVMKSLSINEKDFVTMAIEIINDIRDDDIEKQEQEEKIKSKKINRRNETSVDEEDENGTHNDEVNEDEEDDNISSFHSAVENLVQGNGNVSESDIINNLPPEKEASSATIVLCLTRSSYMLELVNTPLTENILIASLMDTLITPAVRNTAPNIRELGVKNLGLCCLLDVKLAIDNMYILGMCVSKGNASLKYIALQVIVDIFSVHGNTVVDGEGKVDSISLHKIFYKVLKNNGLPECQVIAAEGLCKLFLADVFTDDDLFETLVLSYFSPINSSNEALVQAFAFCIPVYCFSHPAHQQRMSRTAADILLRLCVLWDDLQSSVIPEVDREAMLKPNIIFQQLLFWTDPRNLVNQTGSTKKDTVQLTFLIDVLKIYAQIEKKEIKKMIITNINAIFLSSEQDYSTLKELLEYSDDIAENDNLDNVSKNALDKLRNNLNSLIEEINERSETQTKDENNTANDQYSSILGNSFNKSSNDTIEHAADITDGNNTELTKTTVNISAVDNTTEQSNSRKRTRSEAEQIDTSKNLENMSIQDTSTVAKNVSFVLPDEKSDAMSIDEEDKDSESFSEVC
Put plainly: cryo-EM structure.

Test [2] concerns the target T2, Smc4 (S. cerevisiae condensin subunit) (S. cerevisiae, UniProt Q12267 1-1418).
T2 sequence: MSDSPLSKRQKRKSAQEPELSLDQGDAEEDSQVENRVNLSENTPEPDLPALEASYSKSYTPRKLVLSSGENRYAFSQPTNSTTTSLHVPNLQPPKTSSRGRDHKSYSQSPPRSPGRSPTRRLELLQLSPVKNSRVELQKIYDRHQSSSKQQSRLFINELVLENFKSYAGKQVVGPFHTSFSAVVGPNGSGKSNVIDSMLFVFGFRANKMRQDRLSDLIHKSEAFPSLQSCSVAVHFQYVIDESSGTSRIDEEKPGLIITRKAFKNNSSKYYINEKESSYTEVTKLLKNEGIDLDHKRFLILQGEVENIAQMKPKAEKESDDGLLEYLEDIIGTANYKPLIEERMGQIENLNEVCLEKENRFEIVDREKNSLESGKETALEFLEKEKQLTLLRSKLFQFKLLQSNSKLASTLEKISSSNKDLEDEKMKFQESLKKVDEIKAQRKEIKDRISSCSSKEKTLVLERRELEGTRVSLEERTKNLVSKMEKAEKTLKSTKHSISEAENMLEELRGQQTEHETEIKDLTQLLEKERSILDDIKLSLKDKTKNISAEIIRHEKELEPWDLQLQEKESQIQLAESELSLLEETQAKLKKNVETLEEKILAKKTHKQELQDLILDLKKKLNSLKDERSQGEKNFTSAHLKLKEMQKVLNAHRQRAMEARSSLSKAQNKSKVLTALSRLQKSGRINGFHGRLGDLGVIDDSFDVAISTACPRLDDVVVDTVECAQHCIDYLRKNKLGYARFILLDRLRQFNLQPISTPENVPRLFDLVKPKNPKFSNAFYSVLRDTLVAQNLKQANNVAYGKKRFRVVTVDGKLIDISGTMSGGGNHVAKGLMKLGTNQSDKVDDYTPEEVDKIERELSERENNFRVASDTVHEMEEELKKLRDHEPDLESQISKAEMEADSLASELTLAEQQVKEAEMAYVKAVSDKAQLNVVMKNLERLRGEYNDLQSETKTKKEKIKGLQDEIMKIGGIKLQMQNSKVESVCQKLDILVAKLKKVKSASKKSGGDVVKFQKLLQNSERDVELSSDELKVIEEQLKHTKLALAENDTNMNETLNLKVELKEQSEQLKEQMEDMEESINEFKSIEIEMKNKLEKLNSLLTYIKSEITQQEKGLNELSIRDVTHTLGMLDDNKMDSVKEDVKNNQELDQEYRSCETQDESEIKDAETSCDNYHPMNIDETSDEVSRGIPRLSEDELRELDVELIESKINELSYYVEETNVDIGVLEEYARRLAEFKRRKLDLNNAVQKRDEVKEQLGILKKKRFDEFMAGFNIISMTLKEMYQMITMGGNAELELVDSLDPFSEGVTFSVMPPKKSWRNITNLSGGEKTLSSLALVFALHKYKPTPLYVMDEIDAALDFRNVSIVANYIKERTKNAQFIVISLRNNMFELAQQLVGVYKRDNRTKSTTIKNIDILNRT
Put plainly: cryo-EM structure.

B1: Brn1 (S. cerevisiae condensin kleisin subunit) (natural protein)
chain: MTTQLRYENNDDDERVEYNLFTNRSTMMANFEEWIKMATDNKINSRNSWNFALIDYFYDLDVLKDGENNINFQKASATLDGCIKIYSSRVDSVTTETGKLLSGLAQRKTNGASNGDDSNGGNGEGLGGDSDEANIEIDPLTGMPISNDPDVNNTRRRVYNRVLETTLVEFETIKMKELDQELIIDPLFKKALVDFDEGGAKSLLLNTLNIDNTARVIFDASIKDTQNVGQGKLQRKEEELIERDSLVDDENEPSQSLISTRNDSTVNDSVISAPSMEDEILSLGMDFIKFDQIAVCEISGSIEQLRNVVEDINQAKDFIENVNNRFDNFLTEEELQAAVPDNAEDDSDGFDMGMQQELCYPDENHDNTSHDEQDDDNVNSTTGSIFEKDLMAYFDENLNRNWRGREHWKVRNFKKANLVNKESDLLEETRTTIGDTTDKNTTDDKSMDTKKKHKQKKVLEIDFFKTDDSFEDKVFASKGRTKIDMPIKNRKNDTHYLLPDDFHFSTDRITRLFIKPGQKMSLFSHRKHTRGDVSSGLFEKSTVSANHSNNDIPTIADEHFWADNYERKEQEEKEKEQSKEVGDVVGGALDNPFEDDMDGVDFNQAFEGTDDNEEASVKLDLQDDEDHKFPIRENKVTYSRVSKKVDVRRLKKNVWRSINNLIQEHDSRKNREQSSNDSETHTEDESTKELKFSDIIQGISKMYSDDTLKDISTSFCFICLLHLANEHGLQITHTENYNDLIVNYEDLATTQAAS
In the case of B1, the binding result in test [1] and in test [2] was “binds” in each case.
